Data published in publication PMC5469197, “ANGUSTIFOLIA, a Plant Homolog of CtBP/BARS Localizes to Stress Granules and Regulates Their Formation” (Frontiers in Plant Science, 2017).

Assays:
Test in all cases: co-IP; LUMIER in HEK293TN cells: Prot-A fusion co-transfected with Renilla luciferase fusion (AN always the luciferase fusion with the interactors); luciferase activity before (input) and after pulldown; percentage pulldown = pulldown/input x 100; empty vectors as negative control; positive if more than two times the background
Details in all cases: partners not purified
[1] = molecular target: T1, PROTEIN MEI2-LIKE 5 (ATML5), Prot-A fusion (Arabidopsis thaliana, UniProt Q8VWF5 1-800)
T1 construct: Protein MEI2-like 5, Arabidopsis thaliana, AT1G29400; CDS amplified from Col-0 cDNA; source: HEK293TN cells, transfected; not shown: Protein A (Staphylococcus aureus), N-terminal, kept
T1 sequence (looked up): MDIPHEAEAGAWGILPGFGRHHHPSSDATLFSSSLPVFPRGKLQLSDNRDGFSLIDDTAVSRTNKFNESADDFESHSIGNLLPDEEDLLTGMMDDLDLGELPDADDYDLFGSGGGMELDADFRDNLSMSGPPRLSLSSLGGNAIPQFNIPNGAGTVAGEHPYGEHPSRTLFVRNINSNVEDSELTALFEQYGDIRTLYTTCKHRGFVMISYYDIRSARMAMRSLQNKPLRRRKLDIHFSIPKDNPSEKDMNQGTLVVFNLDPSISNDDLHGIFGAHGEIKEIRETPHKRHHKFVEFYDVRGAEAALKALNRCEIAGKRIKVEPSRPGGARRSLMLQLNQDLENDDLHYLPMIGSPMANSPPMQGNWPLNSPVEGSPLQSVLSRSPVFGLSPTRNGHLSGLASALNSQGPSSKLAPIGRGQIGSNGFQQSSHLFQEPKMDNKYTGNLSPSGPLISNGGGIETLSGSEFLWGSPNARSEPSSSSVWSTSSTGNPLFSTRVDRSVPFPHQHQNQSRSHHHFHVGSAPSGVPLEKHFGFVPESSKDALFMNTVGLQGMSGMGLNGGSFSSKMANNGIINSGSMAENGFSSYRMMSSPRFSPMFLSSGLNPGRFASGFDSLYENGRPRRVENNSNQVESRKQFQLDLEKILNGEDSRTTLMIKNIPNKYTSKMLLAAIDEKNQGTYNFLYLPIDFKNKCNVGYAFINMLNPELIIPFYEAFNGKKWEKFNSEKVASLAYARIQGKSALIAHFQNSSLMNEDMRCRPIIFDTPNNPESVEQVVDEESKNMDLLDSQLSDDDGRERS

[2] = molecular target: T2, RNA BINDING PROTEIN 47B (RBP47B), Prot-A fusion (Arabidopsis thaliana, UniProt Q0WW84 1-435)
T2 construct: RBP47B, Arabidopsis thaliana, AT3G19130; CDS amplified from Col-0 cDNA; source: HEK293TN cells, transfected; not shown: Protein A (Staphylococcus aureus), N-terminal, kept
T2 sequence (looked up): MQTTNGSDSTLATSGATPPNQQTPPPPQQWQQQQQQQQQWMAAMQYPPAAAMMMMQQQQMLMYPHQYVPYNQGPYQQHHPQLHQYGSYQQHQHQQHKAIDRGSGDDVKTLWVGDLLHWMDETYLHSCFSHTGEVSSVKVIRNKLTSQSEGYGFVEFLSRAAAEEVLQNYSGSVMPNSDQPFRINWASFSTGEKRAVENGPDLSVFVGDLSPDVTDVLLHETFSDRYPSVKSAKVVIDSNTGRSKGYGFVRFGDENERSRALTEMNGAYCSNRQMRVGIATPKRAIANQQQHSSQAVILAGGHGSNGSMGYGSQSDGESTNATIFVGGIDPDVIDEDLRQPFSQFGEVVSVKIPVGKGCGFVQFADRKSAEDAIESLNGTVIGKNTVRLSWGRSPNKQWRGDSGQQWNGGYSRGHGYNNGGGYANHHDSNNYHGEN

[3] = molecular target: T3, POLY(A) BINDING PROTEIN 2 (PAB2), Prot-A fusion (Arabidopsis thaliana, UniProt P42731 1-629)
T3 construct: CDS amplified from Col-0 cDNA; also called AtPAB2; source: HEK293TN cells, transfected; not shown: Protein A (Staphylococcus aureus), N-terminal, kept
T3 sequence (looked up): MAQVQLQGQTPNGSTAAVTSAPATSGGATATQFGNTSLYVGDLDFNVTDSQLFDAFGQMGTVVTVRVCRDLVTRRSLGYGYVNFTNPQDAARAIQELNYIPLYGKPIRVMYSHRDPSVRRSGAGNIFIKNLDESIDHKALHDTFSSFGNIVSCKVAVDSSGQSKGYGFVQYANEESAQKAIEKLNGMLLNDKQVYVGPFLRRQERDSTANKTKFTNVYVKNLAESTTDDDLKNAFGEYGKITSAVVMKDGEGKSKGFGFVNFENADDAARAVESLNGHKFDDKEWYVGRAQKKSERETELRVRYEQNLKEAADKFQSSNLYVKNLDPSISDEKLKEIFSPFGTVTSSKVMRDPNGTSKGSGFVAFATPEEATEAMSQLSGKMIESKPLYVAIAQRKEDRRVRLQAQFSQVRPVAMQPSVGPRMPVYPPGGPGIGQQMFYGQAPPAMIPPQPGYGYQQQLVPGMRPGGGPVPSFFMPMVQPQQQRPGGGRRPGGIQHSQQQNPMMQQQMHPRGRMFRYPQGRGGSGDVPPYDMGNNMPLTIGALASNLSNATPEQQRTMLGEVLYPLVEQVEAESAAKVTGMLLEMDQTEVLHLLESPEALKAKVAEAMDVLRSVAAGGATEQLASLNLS

fold change from background [1]: 5.04 fold
percentage pulldown [1]: 0.47%
fold change from background [2]: 3.53 fold
percentage pulldown [2]: 0.33%
fold change from background [3]: 7.67 fold
percentage pulldown [3]: 0.71%
B1: AN, Renilla luciferase fusion (LUMIER) (natural protein, Arabidopsis thaliana, UniProt O23702 1-636, looked up)
chain: MSKIRSSATMPHRDQPSPASPHVVTLNCIEDCALEQDSLAGVAGVEYVPLSRIADGKIESATAVLLHSLAYLPRAAQRRLRPHQLILCLGSADRAVDSTLAADLGLRLVHVDTSRAEEIADTVMALILGLLRRTHLLSRHALSASGWLGSLQPLCRGMRRCRGMVLGIVGRSVSARYLASRSLAFKMSVLYFDVPEGDEERIRPSRFPRAARRMDTLNDLLAASDVISLHCALTNDTVQILNAECLQHIKPGAFLVNTGSCQLLDDCAVKQLLIDGTIAGCALDGAEGPQWMEAWVKEMPNVLILPRSADYSEEVWMEIREKAISILHSFFLDGVIPSNTVSDEEVEESEASEEEEQSPSKHEKLAIVESTSRQQGESTLTSTEIVRREASELKESLSPGQQHVSQNTAVKPEGRRSRSGKKAKKRHSQQKYMQKTDGSSGLNEESTSRRDDIAMSDTEEVLSSSSRCASPEDSRSRKTPLEVMQESSPNQLVMSSKKFIGKSSELLKDGYVVALYAKDLSGLHVSRQRTKNGGWFLDTLSNVSKRDPAAQFIIAYRNKDTVGLRSFAAGGKLLQINRRMEFVFASHSFDVWESWSLEGSLDECRLVNCRNSSAVLDVRVEILAMVGDDGITRWID
notes: ANGUSTIFOLIA (AN), Arabidopsis thaliana, AT1G01510; CDS amplified from Col-0 cDNA; in the dimerisation test the second copy must have been the N-terminal protein A fusion (surmised from the LUMIER format); also called wild-type AN; source: HEK293TN cells, transfected; not shown: Renilla reniformis luciferase, N-terminal, kept
